In the DeepSol protein solubility set:

experiment: soluble on expression in E. coli; label from the status in PepcDB or PDB records

Sequence | soluble on expression in E. coli
MKRLAVILITLALVSSMCITNSNEKRENMKNAKVLMVIAPKDFRDEELFEPMAVFESNGLKVDVVSTTKGECVGMLGNKITVEKTIYDVNPDDYVAIVIVGGIGSKEYLWNNTKLIELVKEFYNKNKVVSAICLSPVVLARAGILKGKKATVYPAPEAIEELKKAGAIYEDRGVVVDGNVITAKSPDYARLFGLEVLKAIEKNNE | soluble
MKRLLKEKEGIRLEFKEARTALPGNLFETICSMLNHDGGDIVLGVSDDGTVAGVEHAKMETMVSNLVNLSNNPQKLDPPFILFPQTYEIDGKWLIHIQVPSSSQVHKTSGIVFNRSNDGDFRVTQPQQIAEIYNRKRMHYTEGIIYPGLRFEDFKVDLFPKVRNLIRSNNPNHPWLALTDQQMLEKAGLWKRDINSTQEGYTLAAALLLGKDEVIQQLLPFFKIDALVRIEDIYRYDDREYIQTNLIEAYEQLMTFVGKHLPDKFYMEGDQRVSLRNKIFREIAANLIVHREYMNAYPCTFIIYSDRVETENANNPHGEGPIDPEHFAPFPKNPTIIKFFMQLGRVDELGSGILNVNRFIKEYANGGSSQFIEGNVFKMIIPVAGEKIEGAIEGAIEGAIEGAIEGATKKVKDKLAILLKAIAENEGKKVPDYVVITKIPRSSIERYIKQLREANLIDFRDKATLIGGYYLTSKMKQKLKEKSLEHHHHHH | not soluble
MKRLLVIGIMYTMFFLIGNIHLHADERTNVKEITSLEEPTWIFQAGISKGKYHDRQDLGFILQRNTPLKVRQTNPNFKDKLTVRLLSNDSKNEKSIQVGNEWITIQGDTPLVPFIDTPYGEEPALLEYQVGNESATKPLPIYKQQGSVSQFFSTWDQFDGEYALIQGESFQLFIPKKDKELVRSLKDFQSLDELIAYYEDIFAMYDSIIGLDGSTVENKKSQNRYFLKADISGAGGAYYGANWTANSTDSTKMWLDKLSWGTLHEIAHGYQAGFDNQGIFTGEVSNNLFGVQYQYSKYGKKADQVGWLFNFGKKEQVERNLYNALMKENKNYDDLDLRQKLILLTMAKQKAGDEAFAKMYQGYRKLASNAAFKKGDHSLPDLMNQYYSENVQVDFTPVFERWGFKLNHKQIEMNRAKGYPAVTSLAYIVPESQLAKARALVDPDIPINSNFEIVRNQQIASLGLKGNLHIHLNTNEIDTLKGGKIKLKEGNTVIQEKTIETADINLQDVPNGIYTVEISGGKTDSMYHFSTYYAYVKEKDNSLTIDVNEMKVSNLVNETIQFLGLGDDQFAELNTDLEQERAVFTVTTKTPHSYYAGEKYASIELFNEKGEKIYTKEMEGTNVTVVKDIIPLKEGYRIKIYHDEVKKRLTSKATIINPMNKTNEIIMTKWGLKNTYLKNNPEENLMKRIDEEMEVIISNPLLKEIPMQKLEMKKNVWMAINMLSEPQKITYINKYKDSLYNE | not soluble
MKRLMFIGPSQCGKTSLTQSLRGEALHYKKTQAIEWSPMAIDTPGEYLENRCLYSALLTSACEADVIALVLNADAQWSPFSPGFTAPMNRPTIGLVTKADLAEPQRISLVAEWLTQAGAQQIFITSALNNSGLDAVLDFLNSKEPLCLTKLEHHHHHH | soluble
MKRSAINDILGHTRQFFSQHDVHLPPFASFSPAQWQQLDTAAWEEVFDLKLGWDVTAFGRNNFAAHGLTLFTLRNGSAKGMPYVKCYAEKIMHVRDAQVTPMHFHWRKREDIINRGGGNLIVELWNADSNEQTADSDITVVIDGCRQKHTAGSQLRLSPGESICLPPGLYHSFWAEAGFGDVLVGEVSSVNDDDHDNHFLQPLDRYNLIDEDEPAQLVLCNEYRQFR | soluble
MKSLESMEQFQQLKNEENVVFMFSAEWCPDCRFVDPFMPEVEEKYSDFSFYYVDRDEFIDLCVKLDVFGIPSFVAYNKGEETGRYVNKDRKTQEQIEEFIEGLK | not soluble
MKSLETMARYKKELTECARNLKLPFLAEHLDEILHEAQEKQQTYSEFLSTCLMRELRDKERRSYLTRLKFAGLPARYDLDLYDFSRTEGIDQRQMRELRELVWIRRTYNLLLVGDSGTGKTFIASGLIHEAVKAGYKAYLLTLEELFVCLKTKEISRPAMKTYKRIMKAQLLAIDDVTLFPLKGEDVLLLFKLVNCVQGKTSLIITASRDLTGWLEMAGDEVCAAALLDRLLYCCEIIRLSGKSYRMENRKTIFSNQQIGTASLEHHHHHH | not soluble
MKSLQSSLGNIETFKLDELCPKHEIQLTQIKGERHVVVGWNENGEAIKEVRCIPPYCEQCQEEQKKQDEEDAIADNLNAKLYMQTYNVLMSNKSYVADEFKTKTFDDFNAVTSEEKRFLEFAKGQVQKYLDGMRGNTLITGGTGIGKTLLSVAIAKGINEGYKTKGEPKSVLFVSLTEMIKQIKEGWNYGKGATLTEFEATELMKSVDYLIIDDLGAKNAVIKPKSDWEQDLLFDVLNNRENTIFNTNLDSDELKIVYNERNYSRILKGLEGNTFKAFGIKYKRYSLNQLKSNM | not soluble
MKSVVSSRETRSESNKSRRTFASTEWNKIIRETLYLETIYIPLDATSHSPDIIFQLQSPVEPKVLTVGVACKGRWKSEGIGWSDIIDEAKKFLDPVYDQVLSSAMDYHHCMLIIVSTKLSLNVSNELGNQSRCYSSGMFIRGDSFKVPDNCELVILCERDVQMLIDEEILSGLERAFHVSRSPTFWDFRLDLLVNLQ | not soluble
MKSYLVGGAVRDALLGLPVKDRDWVVVGATPQQMLDAGYQQVGRDFPVFLHPQSREEYALARTERKSGAGYTGFTCYAAPDVTLEADLLRRDLTVNALAQDADGAIIDPYGGQNDLRKRLLRHVSPAFSEDPLRVLRVARFAARYAHLGFRIAEETQALMAAIVEAGELAHLTPERVWKETESALTTRNPQVFFQTLRDCQALKVLFPEIDALYGVPAPAKWHPEIDTGLHTLMTVTMAAMLSPDVDVRFATLCHDLGKGLTPKALWPRHHGHGPAGVKLVEQLCARLRVPNDIRDLAKLVAEYHDLIHTLPILQPKTLVKLFDSIDAWRKPQRVQQIALTSEADVRGRTGFEASDYPQGRLLLEAWEVAQSVSTKEVVAAGFKGAEIREELTRRRIAAVAQWKEQRCPQPQG | not soluble
MKTARLLSSGALALSLLAGSVTAAVSPDEAAKLGSSLTPIGAQKEGNADGSIPAWTGGLAASAGKVDGKGFLSDPFADEKPLFTITAQNVEQYKDKLSDGQLAMFKRYPETYRIPVYKTHRTVALPAEIDEAVKQSALNVQPINDGNGLSNFEKSRYYAFPIPKNGVEVLWNHITRYRGGNLKRTIVQATPQTNGSFTPIRFEESVAFPQNMPDLDQSKAANILTFFKQQVTAPARLAGNVLLVHETLDQVKEPRLAWVYNAGQRRVRRAPQVAYDGPGTAADGLRTSDNFDMFSGAPDRYDWKLVGKREMYIPYNAYKLNDPTLKYSDIIKAGHINQDLTRYELHRVWEVVGTVKPGERHIYAKRHMYIDEDSWQIALVDHYDGRGQLWRVGEGHAQYHYDQKVAGYTLEALYDVIAGRYLALGMNNEEKRGYEFGFKASSADYTPAALRNAGVR | not soluble
MKTFNAGRNADTEDELWVVEHPPVFTQGLAGKPEHLLIRDDIPVVQIDRGGQITYHGPGQLVVYTMIDFKRRKTSVRNIVSALENSIIATLAEYGIEAAADPKRPGVYVGERKIASLGLRIKNGSVYHGLALNVNMDLSPFTHINPCGYAGMEMTQIADFVQPCPTPDEVAAKLTAHLETQFTPKADNNE | not soluble
MKTGKELKPGTVLRIDNDPWLVQKAEFTKSGRNSAIMKTKLKNLLTGYKTETVYGADDKLDDVILDRKEATLSFINGDEYTFMDTTDYTMYELNAEDIEAVLPYIEEGMEDVCEAVFFEGRLVSVELPTTISRKVVYTENAARGDTSGKVMKPAKLANGTEISVADFIQIDEWIDIDTRDNSFKGRSKKLEHHHHHH | soluble
MKTIRRYDVNEDRGHTGLVEAGDFYYLNYCVGNVGQDIESQINGAFDEMERRLALVGLTLDAVVQMDCLFRDVWNIPVMEKMIKERFNGRYPARKSIQTEFAHHGGPQGLLFQVDGVAYSKHISMT | soluble
MKTLTEIKQTPKGIIKADESFNQVKDKIRLPRRILYLGCGSSHFLAKLLAMVTNMHGGTGVALPCSEFLYSKEAYPIGKPELVVGISRSGETTEVLLALEKINTPKLGISAYESSLTRACDYSLVVPTIEESVVMTHSFTAFYFAYLQLLRHSYGLPLLEATEVAKATEKALEYENYIKEIVEDFDFQNVIFLGSGLLYPVALEASLKMKEMAIFWSEAYPTFEVRHGFKAIADENTLVVLMAQELFEWHKKLVNEFKGQRARVLLISNSQQEFGQDYSIEVPRLSKDATPIPYLPVVQLLSYYKAVARGLNPDNPRFLDKVVRWLEHHHHHH | soluble
MKTLVVALGGNALLQRGEALTAENQYRNIASAVPALARLARSYRLAIVHGNGPQVGLLALQNLAWKEVEPYPLDVLVAESQGMIGYMLAQSLSAQPQMPPVTTVLTRIEVSPDDPAFLQPEKFIGPVYQPEEQEALEAAYGWQMKRDGKYLRRVVASPQPRKILDSEAIELLLKEGHVVICSGGGGVPVTDDGAGSEAVIDKDLAAALLAEQINADGLVILTDADAVYENWGTPQQRAIRHATPDELAPFAKADGSMGPNVTAVSGYVRSRGKPAWIGALSRIEETLAGEAGTCISL | not soluble
MKTMTLYVCQNCGYQSAKWLGKCPDCSAWNSLVEEVRGKGKGPSAPLSGVAPVPICDVAGEAEERLPCGISEFDRVLGGGLVAGSVILIGGDPGIGKSTLLLQVMDHLARTVGPVLYVSGEESARQARLRGERLGIRAKELLILAETALETVLAQIGAVAPRAVVIDSIQTMYAPGLESAPGSVSQVRECAGRLMVAAKRSAIPTFIVGHVTKDGSIAGPRVLEHMVDTVLYFEGDRGHAFRILRAVKNRFGSTNEIGVFEMKEGGLCEVRNPSEIFLSERPLGVSGSAVVTTIEGSRPLLVELQALVTPSSLGVPRRTTLGVDANRLALLVAVLDKKVGLHMAGQDIFLNAAGGARVSEPAADLGMVAALASSHLDKVIDPQTVVVGEVGLAGEVRAITQPETRVREAAKLGFTRAVIPAGSLKQVTAVEGMEVIGVKSVEEALDRLLLEHHHHHH | not soluble
MKTNFKQKIIEQARSEGLQVTALREQVLDIVLQQSGVIKAYNVLSQMQQQSEGVLAPPTAYRALDFWAEQGVLHKVAAVNGYILCSHAQHECDDHCHDHEEAEAHHSAFILVCTECGTADEQTLSHEWAALRAGVAESGFALKEEHVVLTGICKKCQQ | not soluble
